T1: Placenta Growth Factor (PlGF), human (human, UniProt P49763 21-149)
T1 chain: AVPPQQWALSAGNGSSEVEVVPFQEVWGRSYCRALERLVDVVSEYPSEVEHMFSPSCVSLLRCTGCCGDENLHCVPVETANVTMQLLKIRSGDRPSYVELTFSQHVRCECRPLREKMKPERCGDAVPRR

B1: HC 3/SLC 3 (antibody)
chain 1: GQGTLVTVSSASTQPVLHQPPAMSSALGTTIRLTCTLRNDHDIGVYSVYWYQQRPGHPPRFLLRYFSQSDKSQGPQVPPRFSGSKDVARNRGYLSISELQPEDEAMYYCAMGARSRCWPRGFQSKHNSVTHVFGSGTQLTVLSQPKATPSVTLFPPSSEELQANKATLVCLMNDFYPGILTVTWKADGTPITQGVEMTTPSKQSNNKYAASSYLSLTPEQWRSRRSYSCQVMHEGSTVEKTVAPAECS
chain 2: MSWAPVLLMLFVYCTGCGPQPVLHQPPAMSSALGTTIRLTCTLRNDHDIGVYSVYWYQQRPGHPPRFLLRYFSQSDKSQGPQVPPRFSGSKDVARNRGYLSISVTHVFGSGTQLTVLSQPQVQLVQ
B2: HC 8/SLC 3 (antibody)
chain 1: GQGTLVTVSSASTKGPSVQPVLHQPPAMSSALGTTIRLTCTLRNDHDIGVYSVYWYQQRPGHPPRFLLRYFSQSDKSQGPQVPPRFSGSKDVARNRGYLSISELQPEDEAMYYCAMGARSRCWPRGFQSKHNSVTHVFGSGTQLTVLSQPKATPSVTLFPPSSEELQANKATLVCLMNDFYPGILTVTWKADGTPITQGVEMTTPSKQSNNKYAASSYLSLTPEQWRSRRSYSCQVMHEGSTVEKTVAPAECS
chain 2: B1 chain 2
B3: HC 4/SLC 4 (antibody)
chain 1: GQGTLVTVSSASTKQPVLHQPPAMSSALGTTIRLTCTLRNDHDIGVYSVYWYQQRPGHPPRFLLRYFSQSDKSQGPQVPPRFSGSKDVARNRGYLSISELQPEDEAMYYCAMGARSRCWPRGFQSKHNSVTHVFGSGTQLTVLSQPKATPSVTLFPPSSEELQANKATLVCLMNDFYPGILTVTWKADGTPITQGVEMTTPSKQSNNKYAASSYLSLTPEQWRSRRSYSCQVMHEGSTVEKTVAPAECS
chain 2: MSWAPVLLMLFVYCTGCGPQPVLHQPPAMSSALGTTIRLTCTLRNDHDIGVYSVYWYQQRPGHPPRFLLRYFSQSDKSQGPQVPPRFSGSKDVARNRGYLSISVTHVFGSGTQLTVLSQPKQVQLVQ
B4: HC 6/SLC 6 (antibody)
chain 1: GQGTLVTVSSASTKGPQPVLHQPPAMSSALGTTIRLTCTLRNDHDIGVYSVYWYQQRPGHPPRFLLRYFSQSDKSQGPQVPPRFSGSKDVARNRGYLSISELQPEDEAMYYCAMGARSRCWPRGFQSKHNSVTHVFGSGTQLTVLSQPKATPSVTLFPPSSEELQANKATLVCLMNDFYPGILTVTWKADGTPITQGVEMTTPSKQSNNKYAASSYLSLTPEQWRSRRSYSCQVMHEGSTVEKTVAPAECS
chain 2: MSWAPVLLMLFVYCTGCGPQPVLHQPPAMSSALGTTIRLTCTLRNDHDIGVYSVYWYQQRPGHPPRFLLRYFSQSDKSQGPQVPPRFSGSKDVARNRGYLSISVTHVFGSGTQLTVLSQPKATQVQLVQ
B5: HC 2/SLC 5 (antibody)
chain 1: GQGTLVTVSSASQPVLHQPPAMSSALGTTIRLTCTLRNDHDIGVYSVYWYQQRPGHPPRFLLRYFSQSDKSQGPQVPPRFSGSKDVARNRGYLSISELQPEDEAMYYCAMGARSRCWPRGFQSKHNSVTHVFGSGTQLTVLSQPKATPSVTLFPPSSEELQANKATLVCLMNDFYPGILTVTWKADGTPITQGVEMTTPSKQSNNKYAASSYLSLTPEQWRSRRSYSCQVMHEGSTVEKTVAPAECS
chain 2: MSWAPVLLMLFVYCTGCGPQPVLHQPPAMSSALGTTIRLTCTLRNDHDIGVYSVYWYQQRPGHPPRFLLRYFSQSDKSQGPQVPPRFSGSKDVARNRGYLSISVTHVFGSGTQLTVLSQPKAQVQLVQ

Target: T1, Placenta Growth Factor (PlGF), human
Test: ELISA

Which EC50 does the source give for B1 here?
Its EC50 is 0.135 nM.

With B2 as the binder, how does the EC50 read?
Its EC50 is 0.196 nM.

For B3, which EC50 is on record?
Its EC50 is 0.196 nM.

How did the EC50 turn out when B4 was run?
Its EC50 is 0.139 nM.

B5 was tested. Which EC50 did it give?
The EC50 was 0.248 nM.

What follows are binders tested against Hepatocyte Growth Factor (HGF), human (human, UniProt P14210 32-728) (assay: ELISA).
Chain of Hepatocyte Growth Factor (HGF), human (P14210 32-728): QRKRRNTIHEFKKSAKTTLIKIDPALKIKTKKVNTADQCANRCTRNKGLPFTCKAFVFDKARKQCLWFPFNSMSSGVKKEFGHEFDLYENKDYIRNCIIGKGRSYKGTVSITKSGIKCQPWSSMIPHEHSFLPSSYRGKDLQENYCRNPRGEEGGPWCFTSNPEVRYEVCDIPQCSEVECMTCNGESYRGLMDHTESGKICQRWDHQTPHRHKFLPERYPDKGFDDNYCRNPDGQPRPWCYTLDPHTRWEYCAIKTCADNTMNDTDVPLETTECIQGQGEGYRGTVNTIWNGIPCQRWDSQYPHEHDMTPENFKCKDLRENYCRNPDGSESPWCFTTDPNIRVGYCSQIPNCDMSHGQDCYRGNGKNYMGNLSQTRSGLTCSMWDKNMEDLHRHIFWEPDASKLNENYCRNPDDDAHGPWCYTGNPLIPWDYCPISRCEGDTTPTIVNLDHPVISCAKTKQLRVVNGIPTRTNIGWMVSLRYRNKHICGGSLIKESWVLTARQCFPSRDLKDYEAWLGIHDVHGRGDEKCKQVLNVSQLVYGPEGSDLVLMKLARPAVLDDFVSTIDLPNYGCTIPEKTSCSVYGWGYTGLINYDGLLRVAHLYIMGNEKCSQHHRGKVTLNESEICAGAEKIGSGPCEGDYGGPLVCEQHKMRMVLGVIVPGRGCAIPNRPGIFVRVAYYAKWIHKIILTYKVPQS

For B1, which EC50 is on record?
The EC50 was 0.055 nM.

How did the EC50 turn out when B2 was run?
Its EC50 is 0.071 nM.

Which EC50 does the source give for B3 here?
The EC50 was 0.058 nM.

Which EC50 does the source give for B4 here?
Its EC50 is 0.061 nM.

How did the EC50 turn out when B5 was run?
Its EC50 is 0.052 nM.

Reference: patent US20150045540A1 (published 2015)
